Patent publication US20050048066A1, “Identification of potential immunodominant acetylcholine receptor alpha subunit” (priority 2000, published 2005)

What was measured:
[1] = target: solubilized HLA-DR2 (a mix of DRB1*1501 and DRB5*0101) (human); test: competition binding
[2] = target: solubilized HLA-DR3 (a mix of DRB1*0301 and DRB3*0101) (human); test: competition binding; set-up: unit not given beside the values
[3] = target: solubilized HLA-DR3 (a mix of DRB1*0301 and DRB3*0101) (human); test: competition binding
[4] = target: solubilized HLA-DR3 (a mix of DRB1*0301 and DRB3*0101) (human); test: DELFIA competitive binding vs biotinylated MBP 84-102, solubilized HLA-DR3, pH 5.5
[5] = target: solubilized HLA-DR2 (a mix of DRB1*1501 and DRB5*0101) (human); test: DELFIA competitive binding vs biotinylated MBP 84-102, solubilized HLA-DR2, pH 5.5

| Substance | IC50 [1] [µM] | IC50 [2] | IC50 [3] [µM] | IC50 [4] [µM] | IC50 [5] [µM] |
| --- | --- | --- | --- | --- | --- |
| AChRα peptide 310-327 (from UniProt P02708 330-347) | 4.19 |  |  |  |  |
| AChRα peptide 195-212 (from UniProt P02708 215-232) | 36.8 | 6036 ? | 6.04 |  |  |
| AChRα peptide 145-163 (from UniProt P02708 165-183) |  | 2002 ? | 2 |  |  |
| AChRα peptide 419-437 (from UniProt P02708 439-457) |  |  | 48.9 |  |  |
| AChRα peptide 204-217 (from UniProt P02708 224-237) |  |  |  | 71.3 |  |
| AChRα peptide 7-22 (from UniProt P02708 27-42) |  | 6153 ? |  | 6.15 |  |
| AChRα peptide 36-49 (from UniProt P02708 56-69) |  | 7299 ? |  | 7.3 | 11 |
| AChRα peptide 113-126 (from UniProt P02708 133-146) |  |  | 73 |  |  |
